Assay results from publication PMC5699509.
Where two headings read alike, the source gives them in different places.

B1: oligo 9/10 dsDNA (AF546) (dsDNA)
DNA 1: AAAAAAAAAAAAAAAAAAAAAAAAA
DNA 2: TTTTTTTTTTTTTTTTTTTTTTTTT

How the values were obtained:
Assay in all cases: fluorescence quenching
[1] = molecular target: T1, RAD51 WT (Homo sapiens, UniProt Q06609 1-339)
[2] = molecular target: T1, RAD51 WT; remark: listed apart in the source
[3] = molecular target: T2, RAD51 F86L (Homo sapiens, UniProt Q06609 1-339, F86L)
T2 sequence (Q06609 whole entry F86L): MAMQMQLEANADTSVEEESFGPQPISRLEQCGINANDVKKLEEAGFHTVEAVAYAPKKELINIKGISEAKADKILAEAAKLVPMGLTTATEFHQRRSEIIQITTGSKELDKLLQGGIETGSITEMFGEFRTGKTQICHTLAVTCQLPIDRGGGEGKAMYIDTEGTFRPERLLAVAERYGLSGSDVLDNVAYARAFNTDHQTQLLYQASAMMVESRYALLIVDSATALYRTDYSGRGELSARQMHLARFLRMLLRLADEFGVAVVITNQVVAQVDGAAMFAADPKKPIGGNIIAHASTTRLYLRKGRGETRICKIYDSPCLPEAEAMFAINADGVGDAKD

[4] = molecular target: T3, RAD51 E258A (Homo sapiens, UniProt Q06609 1-339, E258A)
T3 sequence (Q06609 whole entry E258A): as the sequence (Q06609 whole entry F86L) above, with L86F, E258A counted along it

[5] = molecular target: T2, RAD51 F86L; remark: listed apart in the source
[6] = molecular target: T3, RAD51 E258A; remark: listed apart in the source

T1 sequence (Q06609 whole entry): as the sequence (Q06609 whole entry F86L) above, with L86F counted along it

Row | Binder | Kd [1] [nM] | Kd [2] [nM] | Kd [3] [nM] | Kd [4] [nM] | Kd [5] [nM] | Kd [6] [nM]
1 | AAAAAAAAAAAAAAAAAAAAAAAAA (ssDNA) [oligo 9 ssDNA (AF546 poly-dA)] | 1900 ± 200 | 600 ± 100 | 4900 ± 400 | 3100 ± 300 |  | 
2 | B1 | 800 ± 100 | 700 ± 100 | 1800 ± 200 | 1300 ± 100 | 1700 ± 100 | 2100 ± 100
